Where “and” joins values, the source holds several entries; their conditions need not be identical. Equal values may be shown once.

As usually defined, the stoichiometry N is the number of molecules, sites or subunits per partner or assembly.

Test [1] concerns the target truncated form of the monomeric type IV pilin from P. aeruginosa strain K122-4 [pilA (Δ1-28); ΔK122] (Pseudomonas aeruginosa strain K122-4). The experiment in a line: SEC-MALS; silica-based column, 10 nm pore size, 10 mM Tris pH 7.4; 1 mg·mL^-1 ΔK122 before incubation with MPD; monomer to dimer. (In general: SEC sorts molecules by how far they enter the pores of the column.)

Test [2] shares this target. The experiment in a line: SEC-MALS; silica-based column, 10 nm pore size, 10 mM Tris pH 7.4; 1 mg·mL^-1 ΔK122 incubated with MPD for 24 hours; Peaks 2-4.
For test [3] the target is unchanged. The test can be described thus: SEC-MALS; MALS of the SEC-separated Peak 3/4 aliquot of 15 mg·mL^-1 ΔK122 after 24 hours incubation with MPD; signal overload at the detector noted.
The target is the same in test [4]. The test can be described thus: SEC-MALS; silica-based column, 10 nm pore size, 10 mM Tris pH 7.4; 1 mg·mL^-1 ΔK122 incubated with MPD for 72 hours; relative peak areas.
Test [5] shares this target. The experiment in a line: SEC-MALS; silica-based column, 10 nm pore size, 10 mM Tris pH 7.4; 1 mg·mL^-1 ΔK122 incubated with MPD for 3 hours; relative peak areas.

The substance “truncated form of the monomeric type IV pilin from P. aeruginosa strain K122-4 [pilA (Δ1-28); ΔK122] (domain or fragment)” registered a percent of total species in the higher molecular weight peaks (before MPD) in test [1] of 17.5%. Also, the stoichiometry N in test [1] was 2; in test [2] it was 14 and 20 and 40; in test [3] it was 4040. In test [4], this substance gave a percent of total protein in the higher molecular weight peaks (72 hours with MPD) of 90%. Besides, the percent of total species in the higher molecular weight peaks (3 hours with MPD) in test [5] stood at 55.1%.

For the origin of these results see PMC3704941.
